Our source for the protein production values is a protein production outcome set (Wang et al. 2014).

A short description of the series: label from the status in PepcDB records.
As for “MIVITGASSGLGAELAKLYDAEGKATYLTGRSESKLSTVTNCLSNNVGYRACDLASHQEVEQLFEQLDSIPSTVVHSAGSGYFGPLEKQDPDQIQTLIENNLSSAINVLRELVKRYKDQPVNVVMIMSTAAQQPKAQESTYCAVKWAVKGLIESVRLELKGKPMKIIAVYPGGMATEFWETSGKSLDTSSFMSAEDAALMILGALANIGNGYVSDITVNRL”, the protein production result is “failed”.

Consider “MIVLGHRGYSAKYLENTLEAFMKAIEAGANGVELDVRLSKDGKVVVSHDEDLKRLFGLDVKIRDATVSELKELTDGKITTLKEVFENVSDDKIINIEIKEREAADAVLEISKKRKNLIFSSFDLDLLDEKFKGTKYGYLIDEENYGSIENFVERVEKERPYSLHVPYQAFELEYAVEVLRSFRKKGIVIFVWTLNDPEIYRKIRREIDGVITDEVELFVKLR”, for which the protein production entry was “not failed”. Next, “MIVSITLLILAVGVFAIILARFIRIPYTLLLVVLGFFLSLFTVAFGIDTGVRASNFQDLMLFILLPVLIFEAAFALNSKLLFKYLPNVLTLATLGLIISTLVIAVFLYFGIAHSGFPFIAALLTGVVISATDPVAVVGQLKALKAPDDLNVLIEGESLFNDATAIVLFSIILSIALGQSEPDLTSAIITFSKVFFGGIIVGSVFGYIAALLVKIIDTSVPHMVVITLFLAYGTFYIAEHLFHVSGIVAVMFAALLFKKSAQDQLKDVHTGLHNIWESLGFIANIFVFVLLGLVVSLNMFTQMWLAIILAIVGAFIARVIAVYCSVWLNQVIVGQPINRKYPPIMIWGGLRGAVTIALVLSLPTELPYWWTIQSIGFGIVLFTLIVQATTTPLLVKKLNI”: “failed”; “MIVSKRTFRSLYIPILIEQLFILIMGQADTLMLNSYSTDAVAASGMISQILMLITFLITIIHVGTNIRIVHLKEHQPSSISQEIYHNLLFNSIVSIVFTIVIGIAFELILRLFQVPQDIFKLTYQFGMIILSVLTLTTCHMYIGTVLRVMNHASSATRITIISNVTNIILNGIVLFIIPQYVGNPVLGVAVVTAFSRLLGCTLALIALIQIFRPFKHYFKLSWKKIYQVSTLGIPTAGEQISYNFAQTFTTAFIAMLGTQVIAAKSVSTVLSGLSFSCAMAFSAASQIYLGKFISRRRYRTLKKVVIKSIWFNITQSFMIMTCVFIGFIVCGRWITHDIQTYHLIIYYLVILFGLEPIRAINNLIVDLLNVTGDVRYPVTVSVVTTWLLLLPGSYLLGIHWRLGYTGIILVSIADEALRFIIMYLRWRNDRWQARMKQIGV”: “failed”; “MIVVKVGGAEGINYEAVAKDAASLWKEGVKLLLVHGGSAETNKVAEALGHPPRFLTHPGGQVSRLTDRKTLEIFEMVYCGLVNKRLVELLQKEGANAIGLSGLDGRLFVGRRKTAVKYVENGKVKVHRGDYTGTVEEVNKALLDLLLQAGYLPVLTPPALSYENEAINTDGDQIAALLATLYGAEALVYLSNVPGLLARYPDEASLVREIPVERIEDPEYLALAQGRMKRKVMGAVEAVKGGVKRVVFADGRVENPIRRALSGEGTVVR”: “not failed”.

With “MIVVTGATGNIGRPLTRALAEAGEQVTAVSRHPAAVPDGVRHLVADLAEPAGLRPALTGAKSLFLLLSGDLHALGANPADLIGEAARSGVRRVVLLSTLGVVTRPFGATRIAMRELEDTLRESGLEWAVLRPGGFASNALWWAESVRARRVVAAPFGDVGVPVVDPADIAAVAAACLLEDRHTGGAYELTGPEVITPRGQTEAIAAALGAPVAFHELTREEARTAMARSMPAELADDTLDILGNPSPAELRVSPDIERVLGRAPRPFADWAARNADAFR”, the protein production result was “failed”. With “MIWILASLIAGIALRAWSVFILPLAYIIGRRNRDLGLLTYFLYGVLLVREVFVRDLISEEAFVSLGLLVPSVLALREIGEEFRVDVRGLVGLGVMSLGFIYKPALVLGVIITGISSIPWIELSILTLLFLVSYVAREHQELVVVGFVLVMSILLAKPIERREMRVKSGRGF”, the protein production entry is “failed”. For the sequence “MIWIVGSGTCRGQTTERAKEIIERAEVIYGSRRALELAGVVDDSRARILRSFKGDEIRRIMEEGREREVAVISTGDPMVAGLGRVLREIAEDVEIKIEPAISSVQVALARLKVDLSEVAVVDCHAKDFDAELTELLKYRHLLILADSHFPLERLGKRRVVLLENLCMEGERIREGNADSIELESDYTIIFVEREVME”, the protein production entry is “not failed”.

In the case of “MIYEGAVFRPPSEASSLILQVSLGCRHNQCTFCSMYKGKSFRIRSIEEIMDMIDAGSKAYPHMERIFLADGDALAVETDVLSNVLETLYQRFPRLKRVGIYGGPKDILEKSPAELARLKEQGLSIVYLGVESGSGLILNLIRKGVTPEEMINAGQKVVASGLKLSCTIILGLGGRERSPEHAVETGKVISAINPHYLGALTLMLAPDAPLTQKIKSGEFTPLNKWESLIELELMVQGLNLKDCLFRSNHASNYLPLKAHLPHDKATLLSTLKEVIEENREEVLRPEYWRGL”, the protein production entry was “failed”.

With “MIYEPAEDSELLLEAALRELKPDDEVIEVGAGSGFVAERLKGKCKCILTTDISPFAAMELRRKGLDVVMTDIAKGIRKKFSLVLFNPPYVELEDELRRGDWLDVAIDGGKKGVKVIKKFLDSLDEIMAERGRAILIASSQNEPDVFDLIDERGFRYEIVGERGLFFEKLFAIKIWKE”, the protein production entry is given as “failed”. Next, “MKADILLVSHSKMITDGIKEMIEQMNASEEITIHSLGGTSDGSLGSDPMKIIDTINEADSDREFLIFADLGSAVLSSELAFDMLEEDQQKHYHLVDAPLVEGAFASAITAGVSDDLTQILAEAQNAGKKGWN”: “not failed”; “MKAEFEEASGLTAGNPVRMKGVNVGSVESIRLNQETQTVRARLRIEEGIRIPEGSHAKVAGFSGIGGVRISILPGPRENPPLPPDATLSAPPEGSVFDRLTDQAPALANKADSVLTSTNTTMSALSTQLQDPDSDLRQALTSAKNITGDLESVTEAEKETLRALLQNLQSVSSDLDTFMGENGDSLDVAVRRLNESLDRLNRGLASLEQTSATLDTVATKLNEGDGTAGRLLNDPSLYLRLDSAAARTNTLLQDFQRDPGRYLNDMTLVKVF”: “failed”.

For “MKAGYETMTPEELRRLTATHDEADYEIVDVREPAEYRQGHLPGAKHIPVGEVEARLDELVPGRTHIFYCRSGARSRAALTFAVESGLTLGPLYDLAGGILAWDGHTVPDEPRLATFAHVSDMRSLLLRAIDMEKAVHGLYTRVRAASGRPVVCELMDRLVGVEVAHARVIYRELRKWWAAADGELPPFETLFETLEGRVLEGGRSVDELEPWIRSASTGDCHEVADLALELEFAAYDLYRTLADEAVQGSGLGEDAARVFLDLASQEKAHARMIVAAMARFGEEGADATA”, the protein production result is listed as “failed”.

Turning to “MKALFFTRMFTLMVSCLMYLSIVKEDNWFGYVFIAAGAAMYAANHVLLTKETNAIWFCLIDIAIGFSFGFIFPGTGLFIIMLCPVAVAFFLRGFPKRTAWSVLCLSSILFLTVLIRTYAMFGNEFVIDHLTSMTFVVFCGVVGKLIRKLLDAQDTAKQQFQELTESHLALSAAHQELHLYAKQVEELTAIYERNRMAREIHDTVGHKMTALLVQLQLLREWQKRDSQKADETVGVCETLAREALDDVRLSVRTLQTENDPSLIESLKQLTEDFCKNAGVTTEFAVSGDPAIIPLSLHPTLIRTVQEALTNAKRHGGAAACSIQLACTTDSISLVIKDDGKGNPEAALGFGLLNMKKRAAEHGGMIRFESERDQGFTVNAEFSLANKKWSFGPVQQKESLS”, the protein production entry is on record as “failed”.

Consider “MKALHFGAGNIGRGFIGKLLADAGIQLTFADVNQVVLDALNARHSYQVHVVGETEQVDTVSGVDAVSSIGDDVVDLIAQVDLVTTAVGPVVLERIAPAIAKGLVKRKEQGNESPLNIIACENMVRGTTQLKGHVMNALPEDAKAWVEEHVGFVDSAVDRIVPPSASATNDPLEVTVETFSEWIVDKTQFKGALPNIPGMELTDNLMAFVERKLFTLNTGHAITAYLGKLAGHQTIRDAILDEKIRAVVKGAMEESGAVLIKRYGFDADKHAAYIQKILGRFENPYLKDDVERVGRQPLRKLSAGDRLIKPLLGTLEYSLPHKNLIQGIAGAMHFRSEDDPQAQELAALIADKGPQAALAQISDLDANSEVVSEAVTAYKAMQ”, for which the protein production entry is recorded as “failed”. With “MKALVVSDDINFLKQACTLVNGKAEYDAVYVGEGRVSGVGASTLYTVKKGTPYDAVADGILEIMGNYDIIVAGSTEFGREVAGYIAGKTGYYAATEIFSLEFSNGKAKTKRFFYGGKTVIEEESDAKVFTVAPGVIEAKEFESKPEEKDLPIKPSKVRVNKVVPKNAGGVR”, the protein production entry is “failed”. With “MKANLERVPIRIGSSWRYKKIDGVEKNCHWHFHNEYELVLFRKNNAKGMVGHFERVIEKNTLWLIPPKMPHAIELLEEKELQCESHIIWLPKEWVENMIFSCTELRRMGELFKRSSNGLCFSTSTAEKVYQLIEKLFKDSILDDLGYLIQILGCLCSDKETRPLQLFSKQEASDKEGKEK” the entry was “failed”. Take “MKASIEQLEPYVPEKPLATLQAELGLTELVRLSANENPYGTSPKVATAVKNWDFTQSNRYPDADAQELRQAVAQQQGIDPNSIVFSVGLDEMIVMLSRTFLATNDQVLVSAPTFSEYGLHAEIEGGQLISVPTLPNDHVNFEGLMKAITPHVKMVWLCNPNNPTGTVESLAAIEAFVQQVPPETMVLIDEAYIDFTPGAAQVTAMQLPAKYPNVVVMRTFSKAYGLANFRIGYAVFNTKYAATMQTIRLPYNVNSLAQVAALAAIDDPNFVKQTVQKNATERAKWMAFFDDQGVTYDQSGANFIFFKYPSATQLADYLVHHGYLIRTGLRPGWLRLTVGTANDNQQLQQLIREFKA”: the protein production result is listed as “failed”. Consider “MKAVTTSPSDPPDPFDPLDPVDPLASTKPEVDVVLPCLDEADALPWVLARIPPGWRALVVDNGSTDGSAEIARRLGATVVPETRRGFGAACHAGLTAATADIVCFCDCDGSLDPSLLVPFVREVRDGAADLVLGRRRPHGRGAWPAHARAGNLALARMLRRRTGLRLHDLGPLRAARREPLLALGLTDRRSGYPLQMVVRAADAGWRIAEHDVPYLPRTGVSKVTGTWRGTWQAVRDMSRVLAEPAQDGPPESGSLSSSQGGSSQLEHHHHHH”, for which the protein production result was “failed”. With “MKAYALVGGPTDLWLHDIKKQLTEAKQNNDLIFGVDRGALFLEELGIIPDVAIGDFDSLQAKDLSRIEKTVKDIRYSNPIKDWTDSEIMVQTVFKDYLADKLIILGASGGRIDHFLINLLMWLNPPINQFAQRVEIIDNHNSIVFFNPGVHIIKKKPDYPYIGFATLSETEDFNISGARYDLNDYSSTYPRVFSSNEFLPNSDYFEISLKKGMIAAIYSKDINRFHNLLEHHHHHH” the entry was “not failed”. With “MKAYLGLYTARLETPARSLKEKRALIKPALERLKARFPVSAARLYGLDAWGYEVVGFTLLGNDPAWVEETMRAAARFLAEAGGFQVALEEFRLEAFELDGLL” the entry was “not failed”.
